Experimental data reported in US12605469B2, “Tumor specific antibody conjugates and uses therefor” (The University of North Carolina at Charlotte, priority 2019, dated 2026).

Key:
KCM tumor = experiment: in vivo anti-tumor activity against established KCM tumor; design: species or system mouse
Method: FIG. 5A is a line graph showing the measured tumor volumes (in mm measured by digital calipers) in mice treated with phosphate-buffered saline (PBS) alone (negative control; filled squares), CpG ODN alone (X's), the unconjugated TAB-004 antibody (open circles), or the TAB-004-CpG ODN conjugate (filled circles). FIG. 5B is a bar graph showing the changes in tumor volumes in mice at 19 and 27 days after the final treatment was administered. […] PBS alone (negative control; white bars); CpG ODN alone (hatched bars); unconjugated TAB-004 antibody (black bars); TAB-004-CpG ODN conjugate (cross-hatched bars). […] The treatment groups and the schedule and dose were as illustrated in FIGS. 5A and 5B. Briefly, 3×10^6 KCM tumor cells were administered subcutaneously into the flank region of mice (n=10 mice) at day 0. At days 4, 10, and 16, 50 μg of a TAB-004-CpG ODN conjugate were administered intratumorally (without adjuvant) to each mouse. The same amounts of antibody were administered to an antibody alone group (unconjugated TAB-004) for comparison. Mice were sacrificed at day 20 and tumors recovered.

KCM tumor cells = experiment: NK cell specific lysis of tumor cells; type: cell-based, mouse; details: various E:T ratios
Excerpt: FIGS. 4A and 4B are graphs showing that an exemplary antibody of the presently disclosed subject matter (TAB-004) enhanced the cytotoxicity of Natural Killer (NK) cells to kill target tumor cells.
(§1) The TAB-004 antibody alone or conjugated to CpG ODN bound to a tumor cell line (referred to herein as the “KCM” cell line; see FIG. 3) generated from the triple transgenic PDA.MUC1.Tg mice.

KCM pancreatic cell line = experiment: binding to KCM pancreatic cell line; type: cell-based, mouse
Excerpt: FIG. 3 is a schematic (upper left panel) showing an approach for creating a triple transgenic mouse line that expresses the Cre recombinase throughout the pancreas, a mutated K-ras oncogene polypeptide, and a human MUC1 polypeptide. This mouse develops pancreatic adenocarcinoma, cells of which were used to generate the primary tumor cell line KCM (lower panel). The KCM cell line was used to test the binding of an exemplary antibody of the presently disclosed subject matter (denoted in the Figure as “TAB” and in the instant disclosure as “TAB-004”) either alone or conjugated to CpG oligodeoxynucleotides (CpG ODN).
as §1

[1] = physical properties of MSN materials (DLS, zeta-potential, TGA, TEM); type: physicochemical
Excerpt: The MSN conjugates were characterized by dynamic light scattering (DLS), thermogravimetric analysis (TGA), and transmission electron microscopy (TEM). […] DLS results indicated slight aggregation. The surface charges were as expected during the different synthesis steps, with the final TAB-004-MSN neutral surface charge indicating successful functionalization of MSN. The PEG linker was quantified by TGA to be about 6-7% by weight.

KCM lysate = molecular target: T1, KCM lysate (Homo sapiens, UniProt P15941); experiment: sandwich ELISA of humanized TAB004 antibodies on KCM lysate; type: binding, mouse; details: compared with chimeric parental antibody
T1 construct: expressed in transfected cells; host or cells: KCM, a primary mouse pancreatic adenocarcinoma line from P48-Cre x LSL-Kras G12D x human MUC1.Tg mice; whole-cell lysate at 10 ug/mL
Method: Antigen binding (KCM lysate) to the 9 humanized antibody combinations and the chimeric parental antibody were evaluated by sandwich ELISA. For this, ELISA plates were coated with hybridoma antibody (1 μg/mL) overnight at 4° C. in the dark and then blocked with 2% BSA for 2 hours at room temperature to reduce non-specific binding. KCM lysate (10 μg/mL) was then added and incubated for 2 hours at room temperature. Antibodies were diluted in 5-fold increments for a total of seven data points and were added to the ELISA wells for 2 hours at room temperature. The plate was washed with PBS three times, and then incubated with HRP conjugated goat anti-human IgG antibody for 2 hours. The plate was washed three times with PBS. TMB, the HRP substrate, was added to each well for color development for 5 minutes at room temperature. Equal amount of 1N HC1 stop solution was added to each well to terminate the reaction.

T1 sequence (P15941 24-1255): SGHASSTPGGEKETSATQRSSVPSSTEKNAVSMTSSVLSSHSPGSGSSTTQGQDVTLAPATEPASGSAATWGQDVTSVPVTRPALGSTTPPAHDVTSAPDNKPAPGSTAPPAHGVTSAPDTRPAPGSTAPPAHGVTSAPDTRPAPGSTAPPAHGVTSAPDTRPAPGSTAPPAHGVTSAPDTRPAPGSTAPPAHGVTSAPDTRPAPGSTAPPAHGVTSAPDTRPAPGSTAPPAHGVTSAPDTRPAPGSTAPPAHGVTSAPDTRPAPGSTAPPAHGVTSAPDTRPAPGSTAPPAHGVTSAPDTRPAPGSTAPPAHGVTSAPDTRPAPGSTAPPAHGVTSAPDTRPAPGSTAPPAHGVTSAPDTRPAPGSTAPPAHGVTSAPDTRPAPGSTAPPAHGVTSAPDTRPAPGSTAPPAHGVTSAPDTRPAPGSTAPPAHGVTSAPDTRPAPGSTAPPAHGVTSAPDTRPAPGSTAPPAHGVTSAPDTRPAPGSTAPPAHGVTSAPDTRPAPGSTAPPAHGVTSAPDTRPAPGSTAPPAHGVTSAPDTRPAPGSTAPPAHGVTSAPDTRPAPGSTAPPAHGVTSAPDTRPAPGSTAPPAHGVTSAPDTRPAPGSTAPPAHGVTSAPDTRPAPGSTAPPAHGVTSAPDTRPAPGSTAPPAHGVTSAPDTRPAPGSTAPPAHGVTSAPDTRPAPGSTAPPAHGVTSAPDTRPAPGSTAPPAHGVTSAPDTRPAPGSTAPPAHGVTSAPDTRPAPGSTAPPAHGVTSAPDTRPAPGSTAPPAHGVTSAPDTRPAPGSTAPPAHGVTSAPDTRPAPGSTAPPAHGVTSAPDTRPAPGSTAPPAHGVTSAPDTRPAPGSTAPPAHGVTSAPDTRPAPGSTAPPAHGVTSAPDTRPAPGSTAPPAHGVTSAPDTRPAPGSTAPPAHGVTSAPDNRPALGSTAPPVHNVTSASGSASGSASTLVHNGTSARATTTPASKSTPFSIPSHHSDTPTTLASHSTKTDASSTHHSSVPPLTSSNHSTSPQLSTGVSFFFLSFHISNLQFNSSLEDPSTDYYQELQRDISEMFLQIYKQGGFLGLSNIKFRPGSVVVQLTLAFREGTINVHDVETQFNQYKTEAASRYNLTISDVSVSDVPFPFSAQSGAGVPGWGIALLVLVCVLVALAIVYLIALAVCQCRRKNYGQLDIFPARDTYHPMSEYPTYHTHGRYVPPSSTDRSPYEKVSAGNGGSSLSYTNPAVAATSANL

B1: TAB-004-CpG ODN conjugate (conjugate)
VH: EVQLQQSGGERATPGASVKMSCKTSGYTFTNYWMHWVKQRPGQGLEWIGYINPSSGYTQYNQKFKDKATLTADKSSSTAYIQLSSLTSEDSAVYYCSTYYGDYLFPYWGQGTLVTVSA
VL: DVLMTQTPLSLPVSLGDQASISCRSSQDIVYGNGNTYLEWYLQKPGQSPKLLIYKVSNRFSGVPDRFSGSGSGTDFTLKISRVEAEDLGVYYCFQGSHVPYTFGGGTKLEIKR
Question: With B1 as the molecule, how does the “growth of established tumor” value (KCM tumor; 50 μg intratumorally at days 4, 10, and 16) read?
Answer: completely stopped the growth of an established tumor leading to complete eradication

Question: And the “tumor volumes at 19 and 27 days post-treatment” value (KCM tumor; compared to control mice)?
Answer: had not increased

Question: And the “tumor regrowth after cessation of treatment” value (KCM tumor; mouse, in vivo)?
Answer: did not grow back the tumors

Question: And the “specific lysis of tumor cells by NK cells” value (KCM tumor cells)?
Answer: further enhanced specific lysis of tumor cells

Question: And the “binding to KCM cell line” value (KCM pancreatic cell line)?
Answer: bound to the KCM pancreatic cell line with equal affinity

B2: TAB-004-MSN (conjugate)
VH: EVQLQQSGGERATPGASVKMSCKTSGYTFTNYWMHWVKQRPGQGLEWIGYINPSSGYTQYNQKFKDKATLTADKSSSTAYIQLSSLTSEDSAVYYCSTYYGDYLFPYWGQGTLVTVSA
VL: DVLMTQTPLSLPVSLGDQASISCRSSQDIVYGNGNTYLEWYLQKPGQSPKLLIYKVSNRFSGVPDRFSGSGSGTDFTLKISRVEAEDLGVYYCFQGSHVPYTFGGGTKLEIKR
Question: Which results are given for B2?
Answer: PDI [1]: 0.35; Size (nm) ([1]; determined in 1 mM PBS, pH 7.4): 342.0 nm; Zeta-potential (mV) ([1]; determined in 1 mM PBS, pH 7.4): −5.6 ± 0.8 mV

B3: Humanized HC3 + LC2: heavy chain H6247, light chain L6246 (antibody)
heavy: EVQLVQSGAEVKKPGASVKVSCKASGYTFTNYWMHWVRQAPGQGLEWMGYINPSSGYTQYNQKFQGWVTMTADTSISTAYMELSRLRSDDTAVYYCSTYYGDYLFPYWGQGTLVTVSSASTKGPSVFPLAPCSRSTSESTAALGCLVKDYFPEPVTVSWNSGALTSGVHTFPAVLQSSGLYSLSSVVTVPSSNFGTQTYTCNVDHKPSNTKVDKTVERKCCVECPPCPAPPVAGPSVFLFPPKPKDTLMISRTPEVTCVVVDVSHEDPEVQFNWYVDGVEVHNAKTKPREEQFNSTFRVVSVLTVVHQDWLNGKEYKCKVSNKGLPAPIEKTISKTKGQPREPQVYTLPPSREEMTKNQVSLTCLVKGFYPSDIAVEWESNGQPENNYKTTPPMLDSDGSFFLYSKLTVDKSRWQQGNVFSCSVMHEALHNHYTQKSLSLSPG
light: DVVMTQSPLSLPVTLGQPASISCRSSQDIVYGNGNTYLEWYQQRPGQSPRLLIYKVSNRFSGVPDRFSGSGSGTDFTLKISRVEAEDVGVYYCFQGSHVPYTFGQGTKLEIKRTVAAPSVFIFPPSDEQLKSGTASVVCLLNNFYPREAKVQWKVDNALQSGNSQESVTEQDSKDSTYSLSSTLTLSKADYEKHKVYACEVTHQGLSSPVTKSFNRGEC
Question: Which “binding by ELISA” value (KCM lysate) does the source give for B3 here?
Answer: retained binding similar to the chimeric parental antibody

B4: Humanized HC3 + LC3: heavy chain H6247, light chain L6247 (antibody)
heavy: EVQLVQSGAEVKKPGASVKVSCKASGYTFTNYWMHWVRQAPGQGLEWMGYINPSSGYTQYNQKFQGWVTMTADTSISTAYMELSRLRSDDTAVYYCSTYYGDYLFPYWGQGTLVTVSSASTKGPSVFPLAPCSRSTSESTAALGCLVKDYFPEPVTVSWNSGALTSGVHTFPAVLQSSGLYSLSSVVTVPSSNFGTQTYTCNVDHKPSNTKVDKTVERKCCVECPPCPAPPVAGPSVFLFPPKPKDTLMISRTPEVTCVVVDVSHEDPEVQFNWYVDGVEVHNAKTKPREEQFNSTFRVVSVLTVVHQDWLNGKEYKCKVSNKGLPAPIEKTISKTKGQPREPQVYTLPPSREEMTKNQVSLTCLVKGFYPSDIAVEWESNGQPENNYKTTPPMLDSDGSFFLYSKLTVDKSRWQQGNVFSCSVMHEALHNHYTQKSLSLSPG
light: DIVLTQSPLSLPVTLGQPASISCRSSQDIVYGNGNTYLEWYQQRPGQSPRLLIYKVSNRFSGVPDSFSGSGSGTDFTLTISRVEAEDVGIYYCFQGSHVPYTFGEGTKLEIKRTVAAPSVFIFPPSDEQLKSGTASVVCLLNNFYPREAKVQWKVDNALQSGNSQESVTEQDSKDSTYSLSSTLTLSKADYEKHKVYACEVTHQGLSSPVTKSFNRGEC
Question: Which “binding by ELISA” value (KCM lysate) does the source give for B4 here?
Answer: retained binding similar to the chimeric parental antibody
